Results on 22 compounds are retold here after US11319341B2, “Immune-stimulating soluble doxorubicin-conjugated complex” (Yafei (Shanghai) Biopharmaceutical Co., Ltd., priority 2016, dated 2022).

Residues, ends and D or L forms follow the SMILES beside them. *: point of attachment. Doxorubicin(3'-N) = COc1cccc2c1C(=O)c1c(O)c3c(c(O)c1C2=O)C[C@@](O)(C(=O)CO)C[C@@H]3O[C@H]1C[C@H](N*)[C@H](O)[C@H](C)O1; Mal(CH2CH2O)6CH2CH2CO = O=C1C=CC(=O)N1CCOCCOCCOCCOCCOCCOCCC(=O)*; MaleimidoPEG4propanoyl = O=C1C=CC(=O)N1CCOCCOCCOCCOCCC(=O)*; Hexanoyl(6-maleimido) = O=C1C=CC(=O)N1CCCCCC(=O)*; Butanoyl(4-maleimido) = O=C1C=CC(=O)N1CCCC(=O)*; Propanoyl(3-maleimido) = O=C1C=CC(=O)N1CCC(=O)*; PEG6 = NCCOCCOCCOCCOCCOCCOCCC(=O)O; X2 = O=C1C=CC(=O)N1CCOCCOCCC(=O)*; PEG4 = NCCOCCOCCOCCOCCC(=O)O; PEG3 = NCCOCCOCCOCCC(=O)O Bounds are passed on as bounds.

A short description of one series: Water solubility of freeze-dried compounds in water (observation and HPLC).
Settings: not given
`COc1cccc2c1C(=O)c1c(O)c3c(c(O)c1C2=O)C[C@@](O)(C(=O)CO)C[C@@H]3O[C@H]1C[C@H](NC(=O)[C@H](CC(C)C)NC(=O)[C@H](CC(N)=O)NC(=O)[C@H](C)NC(=O)[C@H](C)NC(=O)[C@H](CCC(=O)O)NC(=O)CCOCCOCCOCCNC(=O)CCCN2C(=O)C=CC2=O)[C@H](O)[C@H](C)O1` [QHL-069] ({Butanoyl(4-maleimido)-PEG3}-EAANL-{Doxorubicin(3'-N)}) came in with a solubility greater than 25 mg/mL.

Compound `COc1cccc2c1C(=O)c1c(O)c3c(c(O)c1C2=O)C[C@@](O)(C(=O)CO)C[C@@H]3O[C@H]1C[C@H](NC(=O)[C@H](CC(C)C)NC(=O)[C@H](CC(N)=O)NC(=O)[C@H](C)NC(=O)[C@H](C)NC(=O)[C@H](CC(=O)O)NC(=O)CCOCCOCCOCCOCCOCCOCCNC(=O)CCN2C(=O)C=CC2=O)[C@H](O)[C@H](C)O1` [QHL-060] ({Propanoyl(3-maleimido)-PEG6}-DAANL-{Doxorubicin(3'-N)}) registered a solubility greater than 25 mg/mL.

As to `COc1cccc2c1C(=O)c1c(O)c3c(c(O)c1C2=O)C[C@@](O)(C(=O)CO)C[C@@H]3O[C@H]1C[C@H](NC(=O)[C@H](CC(C)C)NC(=O)[C@H](CC(N)=O)NC(=O)[C@H](C)NC(=O)[C@H](C)NC(=O)[C@H](CC(N)=O)NC(=O)CCCCCN2C(=O)C=CC2=O)[C@H](O)[C@H](C)O1` [QHL-133] ({Hexanoyl(6-maleimido)}-NAANL-{Doxorubicin(3'-N)}), the solubility is greater than 2 mg/mL.

With `COc1cccc2c1C(=O)c1c(O)c3c(c(O)c1C2=O)C[C@@](O)(C(=O)CO)C[C@@H]3O[C@H]1C[C@H](NC(=O)[C@H](CC(C)C)NC(=O)[C@H](CC(N)=O)NC(=O)[C@H](C)NC(=O)[C@H](C)NC(=O)[C@H](CCC(N)=O)NC(=O)CCCCCN2C(=O)C=CC2=O)[C@H](O)[C@H](C)O1` [QHL-134] ({Hexanoyl(6-maleimido)}-QAANL-{Doxorubicin(3'-N)}), the solubility is greater than 5 mg/mL.

As to `COc1cccc2c1C(=O)c1c(O)c3c(c(O)c1C2=O)C[C@@](O)(C(=O)CO)C[C@@H]3O[C@H]1C[C@H](NC(=O)[C@H](CC(C)C)NC(=O)[C@H](CC(N)=O)NC(=O)[C@H](C)NC(=O)[C@H](C)NC(=O)CCOCCOCCOCCNC(=O)CCCN2C(=O)C=CC2=O)[C@H](O)[C@H](C)O1` [QHL-102] ({Butanoyl(4-maleimido)-PEG3}-AANL-{Doxorubicin(3'-N)}), the solubility was greater than 10 mg/mL.

In turn, `COc1cccc2c1C(=O)c1c(O)c3c(c(O)c1C2=O)C[C@@](O)(C(=O)CO)C[C@@H]3O[C@H]1C[C@H](NC(=O)[C@H](CC(C)C)NC(=O)[C@H](CC(N)=O)NC(=O)[C@H](C)NC(=O)[C@H](C)NC(=O)[C@H](CCC(=O)O)NC(=O)CCOCCOCCN2C(=O)C=CC2=O)[C@H](O)[C@H](C)O1` [QHL-021] (X2-EAANL-{Doxorubicin(3'-N)}) came in with a solubility greater than 20 mg/mL.

As to `COc1cccc2c1C(=O)c1c(O)c3c(c(O)c1C2=O)C[C@@](O)(C(=O)CO)C[C@@H]3O[C@H]1C[C@H](NC(=O)[C@H](CC(C)C)NC(=O)[C@H](CC(N)=O)NC(=O)[C@H](C)NC(=O)[C@H](C)NC(=O)[C@H](Cc2ccc(O)cc2)NC(=O)CCCCCN2C(=O)C=CC2=O)[C@H](O)[C@H](C)O1` [QHL-132] ({Hexanoyl(6-maleimido)}-YAANL-{Doxorubicin(3'-N)}), the solubility was greater than 2 mg/mL.

`COc1cccc2c1C(=O)c1c(O)c3c(c(O)c1C2=O)C[C@@](O)(C(=O)CO)C[C@@H]3O[C@H]1C[C@H](NC(=O)[C@H](CC(C)C)NC(=O)[C@H](CC(N)=O)NC(=O)[C@H](C)NC(=O)[C@H](C)NC(=O)[C@H](CCCCN)NC(=O)CCCCCN2C(=O)C=CC2=O)[C@H](O)[C@H](C)O1` [QHL-135] ({Hexanoyl(6-maleimido)}-KAANL-{Doxorubicin(3'-N)}): the solubility was greater than 5 mg/mL.

As to `COc1cccc2c1C(=O)c1c(O)c3c(c(O)c1C2=O)C[C@@](O)(C(=O)CO)C[C@@H]3O[C@H]1C[C@H](NC(=O)[C@H](CC(C)C)NC(=O)[C@H](CC(N)=O)NC(=O)[C@H](C)NC(=O)[C@H](C)NC(=O)[C@H](CCC(=O)O)NC(=O)CCOCCOCCOCCOCCOCCOCCN2C(=O)C=CC2=O)[C@H](O)[C@H](C)O1` [QHL-024] ({Mal(CH2CH2O)6CH2CH2CO}-EAANL-{Doxorubicin(3'-N)}), the solubility is greater than 30 mg/mL.

As to `COc1cccc2c1C(=O)c1c(O)c3c(c(O)c1C2=O)C[C@@](O)(C(=O)CO)C[C@@H]3O[C@H]1C[C@H](NC(=O)[C@H](CC(C)C)NC(=O)[C@H](CC(N)=O)NC(=O)[C@H](C)NC(=O)[C@H](C)NC(=O)[C@H](CCC(=O)O)NC(=O)CCN2C(=O)C=CC2=O)[C@H](O)[C@H](C)O1` [QHL-111] ({Propanoyl(3-maleimido)}-EAANL-{Doxorubicin(3'-N)}), the solubility was greater than 10 mg/mL.

On to `COc1cccc2c1C(=O)c1c(O)c3c(c(O)c1C2=O)C[C@@](O)(C(=O)CO)C[C@@H]3O[C@H]1C[C@H](NC(=O)[C@H](CC(C)C)NC(=O)[C@H](CC(N)=O)NC(=O)[C@H](C)NC(=O)[C@H](C)NC(=O)[C@H](CC(=O)O)NC(=O)CCOCCOCCOCCNC(=O)CCCN2C(=O)C=CC2=O)[C@H](O)[C@H](C)O1` [QHL-072] ({Butanoyl(4-maleimido)-PEG3}-DAANL-{Doxorubicin(3'-N)}), for which the solubility is greater than 25 mg/mL.

As for `COc1cccc2c1C(=O)c1c(O)c3c(c(O)c1C2=O)C[C@@](O)(C(=O)CO)C[C@@H]3O[C@H]1C[C@H](NC(=O)[C@H](CC(C)C)NC(=O)[C@H](CC(N)=O)NC(=O)[C@H](C)NC(=O)[C@H](C)NC(=O)[C@H](CC(=O)O)NC(=O)CCN2C(=O)C=CC2=O)[C@H](O)[C@H](C)O1` [QHL-114] ({Propanoyl(3-maleimido)}-DAANL-{Doxorubicin(3'-N)}), the solubility is greater than 15 mg/mL.

Turning to `COc1cccc2c1C(=O)c1c(O)c3c(c(O)c1C2=O)C[C@@](O)(C(=O)CO)C[C@@H]3O[C@H]1C[C@H](NC(=O)[C@H](CC(C)C)NC(=O)[C@H](CC(N)=O)NC(=O)[C@H](C)NC(=O)[C@H](C)NC(=O)[C@H](CO)NC(=O)CCCCCN2C(=O)C=CC2=O)[C@H](O)[C@H](C)O1` [QHL-129] ({Hexanoyl(6-maleimido)}-SAANL-{Doxorubicin(3'-N)}), the solubility was greater than 5 mg/mL.

Regarding `COc1cccc2c1C(=O)c1c(O)c3c(c(O)c1C2=O)C[C@@](O)(C(=O)CO)C[C@@H]3O[C@H]1C[C@H](NC(=O)[C@H](CC(C)C)NC(=O)[C@H](CC(N)=O)NC(=O)[C@H](C)NC(=O)[C@H](C)NC(=O)[C@H](CC(=O)O)NC(=O)CCOCCOCCOCCOCCNC(=O)CCCN2C(=O)C=CC2=O)[C@H](O)[C@H](C)O1` [QHL-078] ({Butanoyl(4-maleimido)-PEG4}-DAANL-{Doxorubicin(3'-N)}), the solubility is greater than 25 mg/mL.

In turn, `COc1cccc2c1C(=O)c1c(O)c3c(c(O)c1C2=O)C[C@@](O)(C(=O)CO)C[C@@H]3O[C@H]1C[C@H](NC(=O)[C@H](CC(C)C)NC(=O)[C@H](CC(N)=O)NC(=O)[C@H](C)NC(=O)[C@H](C)NC(=O)[C@H](CC(=O)O)NC(=O)CCOCCOCCOCCOCCOCCOCCN2C(=O)C=CC2=O)[C@H](O)[C@H](C)O1` [QHL-036] ({Mal(CH2CH2O)6CH2CH2CO}-DAANL-{Doxorubicin(3'-N)}) came in with a solubility greater than 30 mg/mL.

Compound `CC[C@H](C)[C@H](NC(=O)CCCCCN1C(=O)C=CC1=O)C(=O)N[C@@H](C)C(=O)N[C@@H](C)C(=O)N[C@@H](CC(N)=O)C(=O)N[C@@H](CC(C)C)C(=O)N[C@H]1C[C@H](O[C@H]2C[C@](O)(C(=O)CO)Cc3c(O)c4c(c(O)c32)C(=O)c2c(OC)cccc2C4=O)O[C@@H](C)[C@H]1O` [QHL-125] ({Hexanoyl(6-maleimido)}-IAANL-{Doxorubicin(3'-N)}) came in with a solubility greater than 2 mg/mL.

`COc1cccc2c1C(=O)c1c(O)c3c(c(O)c1C2=O)C[C@@](O)(C(=O)CO)C[C@@H]3O[C@H]1C[C@H](NC(=O)[C@H](CC(C)C)NC(=O)[C@H](CC(N)=O)NC(=O)[C@H](C)NC(=O)[C@H](C)NC(=O)[C@H](C)NC(=O)CCCCCN2C(=O)C=CC2=O)[C@H](O)[C@H](C)O1` [QHL-122] ({Hexanoyl(6-maleimido)}-AAANL-{Doxorubicin(3'-N)}) showed a solubility greater than 10 mg/mL.

Turning to `COc1cccc2c1C(=O)c1c(O)c3c(c(O)c1C2=O)C[C@@](O)(C(=O)CO)C[C@@H]3O[C@H]1C[C@H](NC(=O)[C@H](CC(C)C)NC(=O)[C@H](CC(N)=O)NC(=O)[C@H](C)NC(=O)[C@H](C)NC(=O)[C@H](CCC(=O)O)NC(=O)CCOCCOCCOCCOCCN2C(=O)C=CC2=O)[C@H](O)[C@H](C)O1` [QHL-023] (MaleimidoPEG4propanoyl-EAANL-{Doxorubicin(3'-N)}), the solubility was greater than 25 mg/mL.

The compound `COc1cccc2c1C(=O)c1c(O)c3c(c(O)c1C2=O)C[C@@](O)(C(=O)CO)C[C@@H]3O[C@H]1C[C@H](NC(=O)[C@H](CC(C)C)NC(=O)[C@H](CC(N)=O)NC(=O)[C@H](C)NC(=O)[C@H](C)NC(=O)[C@H](CCC(=O)O)NC(=O)CCOCCOCCOCCOCCOCCOCCNC(=O)CCCN2C(=O)C=CC2=O)[C@H](O)[C@H](C)O1` [QHL-081] ({Butanoyl(4-maleimido)-PEG6}-EAANL-{Doxorubicin(3'-N)}) registered a solubility greater than 30 mg/mL.

Turning to `COc1cccc2c1C(=O)c1c(O)c3c(c(O)c1C2=O)C[C@@](O)(C(=O)CO)C[C@@H]3O[C@H]1C[C@H](NC(=O)[C@H](CC(C)C)NC(=O)[C@H](CC(N)=O)NC(=O)[C@H](C)NC(=O)[C@H](C)NC(=O)CCOCCOCCOCCOCCOCCOCCNC(=O)CCCN2C(=O)C=CC2=O)[C@H](O)[C@H](C)O1` [QHL-108] ({Butanoyl(4-maleimido)-PEG6}-AANL-{Doxorubicin(3'-N)}), the solubility is greater than 20 mg/mL.

On to `COc1cccc2c1C(=O)c1c(O)c3c(c(O)c1C2=O)C[C@@](O)(C(=O)CO)C[C@@H]3O[C@H]1C[C@H](NC(=O)[C@H](CC(C)C)NC(=O)[C@H](CC(N)=O)NC(=O)[C@H](C)NC(=O)[C@H](C)NC(=O)[C@H](Cc2c[nH]cn2)NC(=O)CCCCCN2C(=O)C=CC2=O)[C@H](O)[C@H](C)O1` [QHL-137] ({Hexanoyl(6-maleimido)}-HAANL-{Doxorubicin(3'-N)}), for which the solubility was greater than 5 mg/mL.

Still in this series, the particulars now being: freeze-dried compound dissolved in water; observation and HPLC test (>95%).
`COc1cccc2c1C(=O)c1c(O)c3c(c(O)c1C2=O)C[C@@](O)(C(=O)CO)C[C@@H]3O[C@H]1C[C@H](N)[C@H](O)[C@H](C)O1` [C1: DOX] displayed a solubility of less than 1 mg/mL.

What is called solubility is how much of the substance goes into solution per volume. The low end stands for a poorly soluble substance, the high end for a readily soluble substance.
